The source of these data is patent US20030232756A1, “Ligands for G protein coupled receptor GPR7 and GPR8 and uses thereof” (Euroscreen, S.A., priority 2002, published 2003).

One experiment concerns the target T1, human GPR8 (Homo sapiens, UniProt P48146).
T1 construct: expressed in transfected cells; host or cells: CHO-K1 clone WTA11 (apoaequorin + Galpha16)
The experiment in a line: Aequorin-based functional assay, WTA11 cells expressing GPR8. The format is cell-based. Conditions: in words. Here is the method:
(§1) In the experiments described in this section, the aequorin assay measured functional responses by recording the luminescence of aequorin in GPR7- and GPR8-expressing cells following addition of (potential) agonists, as previously described (Kotani, M. et al.). In brief, cells were collected from plates with PBS containing 5 mM EDTA, pelleted, resuspended at 5×10^6 cells/ml in DMEM-F12 medium containing 0.1% BSA, incubated with 5 μM coelenterazine H (Molecular Probes, Eugene, Oreg.) for 4 h at room temperature, and diluted in DMEM-F12 medium at a concentration of 5×10^5 cells/ml. Cells where then mixed with the ligands, and the light emission was recorded over 30 s using a Microlumat™ luminometer (Perkin Elmer, Norwalk, Conn.).

The target in another experiment is T2, human GPR7 (Homo sapiens, UniProt P48145).
T2 construct: expressed in transfected cells; host or cells: CHO-K1 clone WTA11 (mitochondrial apoaequorin + Galpha16)
T2 sequence (P48145 1-328): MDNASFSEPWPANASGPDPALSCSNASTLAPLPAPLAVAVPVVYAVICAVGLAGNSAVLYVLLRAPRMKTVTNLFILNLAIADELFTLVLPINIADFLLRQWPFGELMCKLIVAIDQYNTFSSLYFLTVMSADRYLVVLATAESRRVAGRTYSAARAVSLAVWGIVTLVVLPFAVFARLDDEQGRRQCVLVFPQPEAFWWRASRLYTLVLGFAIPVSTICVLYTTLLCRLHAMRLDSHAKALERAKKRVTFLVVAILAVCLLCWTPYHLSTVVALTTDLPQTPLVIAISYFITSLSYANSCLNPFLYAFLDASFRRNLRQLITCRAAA
Description: Aequorin-based functional assay, WTA11 cells expressing GPR7. Conditions: in words. The format is cell-based. As to the method:
CHO—K1 cells (ATCC CRL-9618 (Bethesda, Md., USA)) were previously transfected with a plasmid encoding mitochondrial apoaequorin and Gα16. A clone obtained by limit dilution, called WTA11, was grown in Nutrient Mixture HAM's F12 medium supplemented with 10% fetal calf serum, 250 μg/ml zeocin, 100 units/ml penicillin and 100 μg/ml streptomycin. A bicistronic plasmid encoding the human GPR7 was transfected into WTA11 CHO—K1 cells, using Fugene 6 (Roche Diagnostics, Mannheim, Germany). Individual clones were selected two days after transfection with 400 μg/ml neomycin and GPR7-positive clones were confirmed by northern blotting, RT-PCR and sequencing.
Functional responses were analysed by recording the luminescence of aequorin following the addition of the ligand. In brief, cells were collected from plates with PBS containing 5 mM EDTA, pelleted, and resuspended at 10^7 cells/ml in DMEM-F12 medium and incubated with 5 μM coelenterainze H (Molecular Porbes) for 4 h at room temperature. Cells were then washed in DMEM-F12 medium and resuspended at a concentration of 2×10^6 cells/ml. Cells where then mixed with the ligand, and the light emission was recorded over 60 s using a Microlumat™ luminometer (Perkin Elmer). Results are expressed as relative light units (RLU) (FIG. 5).
as §1

T1 sequence (P48146 whole entry): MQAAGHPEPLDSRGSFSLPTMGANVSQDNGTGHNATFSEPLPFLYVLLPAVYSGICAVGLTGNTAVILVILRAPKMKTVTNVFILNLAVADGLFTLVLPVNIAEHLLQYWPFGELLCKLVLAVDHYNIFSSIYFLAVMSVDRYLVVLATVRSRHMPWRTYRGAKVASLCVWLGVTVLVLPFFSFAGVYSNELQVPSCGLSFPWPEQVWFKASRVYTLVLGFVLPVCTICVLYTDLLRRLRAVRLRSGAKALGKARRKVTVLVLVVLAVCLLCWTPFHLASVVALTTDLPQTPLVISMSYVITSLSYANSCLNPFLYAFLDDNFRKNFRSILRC

On to “SPYA (PYAR; UniProt Q8NG41 51-54, looked up, fragment) [pro-L7 [51-54], human peptide derived from the L7 precursor]”, for which, in the experiment with human GPR8, the “activity in aequorin-based functional assay on GPR8” value (shortened to “activity … on GPR8”) was “inactive”. Further, the “activity in aequorin-based functional assay on GPR7” value (from here on “activity … on GPR7”) in the experiment with human GPR7 is “inactive”.

Consider “SPYLW (UniProt Q8N729 58-62, looked up, fragment) [pro-L8 [58-62], human peptide derived from the L8 precursor]”, for which the “activity … on GPR8” value with human GPR8 was “inactive”. Besides, in the experiment with human GPR7, the “activity … on GPR7” value is “inactive”.

As to “WYKPAAGHSSYSVGRAAGLL [pro-L7 [25-44], human peptide derived from the L7 precursor]”, the “activity … on GPR8” value with human GPR8 was “active”. The “activity … on GPR7” value in the experiment with human GPR7 is “active”.
